Assay results reported in the Human Domainome abundance scans (Beltran et al. 2025).

B1: Tumor protein p73, residues 487 to 549; numbered along this chain, O15350 (parent)
chain: YHADPSLVSFLTGLGCPNCIEYFTSQGLQSIYHLQNLTIEDLGALKIPEQYRMTIWRGLQDLK

Variants of: B1
Assay: abundance fitness (aPCA) (normalised: wild type 0, dead -1); higher = more abundant; growth selection in yeast, the domain comes from the species named
Conditions: Homo sapiens

Abundance fitness of substitutions, site by site:
I47: T -0.431, C -0.171, K -0.929, V 0.071, Q -0.985, F -0.263, W -0.925, Y -0.824, R -0.962, L 0.021, N -0.413, S -0.95, A -0.768, D -0.477, P -1.07, G -0.913, E -1.06
Y51: K 0.034, E -0.09, R -0.137, D -0.072, V -0.06, Q -0.124, S -0.126, N -0.139, M -0.189, C -0.083, F -0.032, P -0.049, L -0.116, H -0.086, A -0.005
Q50: S 0.045, N 0.009, D -0.106, A 0.08, K 0.06, R 0.051, M 0.058, G 0.111, I -0.192, E 0.047, H 0.039, T -0.034, C 0.096, W -0.135, Y -0.297, V 0.038, L -0.036, F -0.23, P -0.132
R52: Q -0.019, I 0.2, D -0.425, E -0.075, W -0.082, Y 0.095, T 0.009, H 0.054, L 0.004, C -0.131, P -0.755, M -0.146, G -0.114, F -0.53, S -0.066
M53: H 0.108, V -0.061, R 0.027, N 0.01, K -0.033, D 0.019, P -0.051, A -0.025, G -0.025, T 0.009, S 0.008, L 0.021, F -0.123, I -0.072, Y -0.302, W -0.04
L42: A -0.447, N -0.858, R -0.733, K -0.515, T -0.45, Y -0.02, H -0.577, W 0.072, I -0.215, C -0.494, D -0.618, F 0.012, M -0.078, P -0.696, G -0.654, Q -0.512, V -0.127, S -0.785
I55: A -0.918, F -0.601, E -0.869, V -0.041, N -0.559, W -0.923, S -0.881, K -1.01, Q -0.5, P -1.08, C -0.459, T -0.598, M -0.241, L -0.091, R -0.807
N36: Y -0.202
K46: C -0.08, G 0.025, N 0.009, Y -0.301, I -0.345, P 0.01, E -0.127, R 0.041, D -0.138, S -0.043, F -0.142, M -0.155, V -0.092, L -0.069, T -0.102, W -0.249
R57: H 0.012, F 0.311, A -0.068, N -0.134, D 0.011, K -0.011, L -0.069, E -0.058, C -0.192, I -0.24, G -0.01
W56: A 0.014, P -0.893, K -0.106, V -0.048, Y 0.037, C -0.124, D -0.241, T 0.082, F 0.075, Q 0.035, S 0.011, R -0.163, I 0.086, E -0.047, G -0.128, M -0.049, L 0.017, N -0.137
L45: Y 0.04, Q -0.518, E -0.553, I 0.067, H -0.45, G -0.517
